Data: patent US9175282B2, “Cellobiose 2-epimerase, its preparation and uses” (HAYASHIBARA CO., LTD., priority 2009, dated 2015)
Entries after “also recorded” stand apart in the source; their conditions may differ.

B1: cellobiose 2-epimerase of the present invention: thermostable cellobiose 2-epimerase of Caldicellusiruptor saccharolyticus ATCC43494, amino acid sequence of SEQ ID NO:10 with 390 residues (protein, listed as Caldicellulosiruptor saccharolyticus)
chain: MDITRFKEDLKAHLEEKIIPFWQSLKDDEFGGYYGYMDFNLNIDRKAQKGCILNSRILWFFSACYNVLKSEKCKEMAFHAFEFLKNKFWDKEYEGLFWSVSHKGVPVDVTKHVYVQAFGIYGLSEYYEASGDEEALHMAKRLFEILETKCKRENGYTEQFERNWQEKENRFLSENGVIASKTMNTHLHVLESYTNLYRLLKLDDVYEALEWIVRLFVDKIYKKGTGHFKVFCDDNWNELIKAVSYGHDIEASWLLDQAAKYLKDEKLKEEVEKLALEVAQITLKEAFDGQSLINEMIEDRIDRSKIWWVEAETVVGFFNAYQKTKEEKYLDAAIKTWEFIKEHLVDRRKNSEWLWKVNEDLEAVNMPIVEQWKCPYHNGRMCLEIIKRVD
B2: recombinant epimerase: cellobiose 2-epimerase expressed in E. coli transformant ETCS1 and purified by heat treatment and chromatography (protein, listed as Caldicellulosiruptor saccharolyticus)
chain: B1 chain

Experiments:
cellobiose 2-epimerase = test: Effect of metal ions on the epimerase activity; format: biochemical, Caldicellusiruptor saccharolyticus ATCC43494; conditions: ions that inhibit the enzyme; listed as Caldicellulosiruptor saccharolyticus ATCC43494
[1] = Lactose 2-epimerase activity of enzyme preparations; format: biochemical; conditions: purified enzyme
Method: Through the specification of the present invention, the activity of the cellobiose 2-epimerase was determined as a lactose 2-epimerase activity, which catalyzes epimerization of lactose to form epilactose, using lactose as the substrate obtainable in highly purified form at low cost. The lactose 2-epimerase activity was measured as follows. To 1,000 μl of substrate solution, which contains lactose to give a final concentration of 35.1 mM and acetate buffer (pH 6.0) to give a final concentration of 20 mM of the reaction solution, 200 μl of a enzyme solution was added to give a 1,200 μl of the reaction solution, followed by reaction at 50° C. for 20 minutes. The reaction was stopped by heating for 10 minutes in a boiling water bath. Then reaction mixture was subjected to HPLC chromatography to determine the amount of epilactose produced by the reaction. The HPLC chromatography was conducted at the following conditions; […]
Then, each seed culture broth was inoculated into 10 L of the same medium eight each in eight 11-L pressure steel bottles and cultured. […] The epimerase activity of the crude enzyme was determined to be 0.009 Unit/ml.
The enzyme preparation purified by the above process contained 0.9 mg protein, and its activity yield was 3.4% from the crude enzyme. […] The amount of protein was measured by Lowry method using bovine serum albumin as standard.

[2] = Optimum temperature and optimum pH of epimerase activity; format: biochemical; conditions: for Optimum pH: reacted at 50° C. for 20 minutes; for Optimum temperature: reacted at pH 6.0 for 20 minutes
Method: Through the specification of the present invention, the activity of the cellobiose 2-epimerase was determined as a lactose 2-epimerase activity, which catalyzes epimerization of lactose to form epilactose, using lactose as the substrate obtainable in highly purified form at low cost. The lactose 2-epimerase activity was measured as follows. To 1,000 μl of substrate solution, which contains lactose to give a final concentration of 35.1 mM and acetate buffer (pH 6.0) to give a final concentration of 20 mM of the reaction solution, 200 μl of a enzyme solution was added to give a 1,200 μl of the reaction solution, followed by reaction at 50° C. for 20 minutes. The reaction was stopped by heating for 10 minutes in a boiling water bath. Then reaction mixture was subjected to HPLC chromatography to determine the amount of epilactose produced by the reaction. The HPLC chromatography was conducted at the following conditions;
Using the purified cellobiose 2-epimerase preparation obtained by the method of Experiment 2, effects of temperature and pH on the epimerase activity were investigated according to the method of assaying the activity. The results were in FIG. 3 (optimum temperature) and FIG. 4 (optimum pH). The optimum temperature of the enzyme is 80° C. when reacted at pH 6.0 for 20 minutes. The optimum pH of the enzyme is 7.8 when reacted at 50° C. for 20 minutes.

[3] = Substrate specificities of the cellobiose 2-epimerase (summary Table 6); format: biochemical; conditions: listed as Caldicellulosiruptor saccharolyticus ATCC43494
Method: Reaction products formed from D-glucose, D-galactose, and D-mannose by the action of the cellobiose 2-epimerase of the present invention were investigated. D-Glucose, D-galactose, or D-mannose was dissolved into 50 mM acetate buffer (pH 6.0) to give a final concentration of 20% (w/v) to make into a substrate solution. To 0.1 ml of the substrate solution, 130 units/g-solid substrate for D-glucose and D-mannose (0.1 ml as the enzyme solution), or 500 units/g-solid substrate for D-galactose (0.1 ml as the enzyme solution), of the purified preparation of the recombinant cellobiose 2-epimerase, obtained by the method in Experiment 4-4, was admixed; and followed the enzyme reaction at 60° C. for 48 hours.
Each of them was dissolved into 20 mM acetate buffer (pH 6.0), admixed with the purified preparation of the recombinant cellobiose 2-epimerase, obtained by the method in Experiment 4-4, and followed the enzyme reaction under the conditions of 10% (w/v) substrate concentration, 60° C. for 72 hours. The amount of enzyme was set to 130 or 500 units/g-substrate when monosaccharide was used as the substrate, and to 1 or 130 units/g-substrate when disaccharide or trisaccharide was used as the substrate. Each reaction mixture was heated at 100° C. for 10 minutes to stop the reaction and subjected to HPLC analysis to determine the contents of isomerized saccharide, on a dry solid basis. The contents of epilactose and lactulose in the reaction mixture obtained using lactose as substrate were determined by GC analysis described in Experiment 1-2.
The physicochemical properties and substrate specificities of the cellobiose 2-epimerase from Caldicellulosiruptor saccharolyticus ATCC43494, obtained from above experiments, were shown in Table 6 together with those of conventional cellobiose 2-epimerases from Ruminococcus albus (excerpted from Non-Patent Document 3) and Eubacterium cellosolvens (excerpted from Non-Patent Document 4).

[4] = Thermostability and pH stability (residual activity); conditions: incubated at pH 6.0 for 60 minutes
Method: The thermostability was determined as the residual activity of the enzyme, after incubated at given temperatures for 60 minutes in 10 mM acetate buffer (pH 6.0) followed by being cooled in cold water.

| Molecule | Inhibition by metal ions (cellobiose 2-epimerase) | Specific activity [1] [unit/mg-protein] | Optimum pH [2] | Optimum temperature [2] | Optimum temperature ([2]; listed as Caldicellulosiruptor saccharolyticus ATCC43494) [°C] | Optimum temperature ([2]; listed as purified cellobiose 2-epimerase preparation) [°C] | Substrate specificity: Cellobiose ([3]; substrate Cellobiose) | Substrate specificity: D-Galactose ([3]; substrate D-Galactose) | Substrate specificity: D-Glucose ([3]; substrate D-Glucose) | Substrate specificity: D-Mannose ([3]; substrate D-Mannose) | Substrate specificity: Lactose ([3]; substrate Lactose) | Substrate specificity: Maltose ([3]; substrate Maltose) | Thermostability (stable up to) [4] |
| --- | --- | --- | --- | --- | --- | --- | --- | --- | --- | --- | --- | --- | --- |
| B1 | Al^3+, Fe^2+, Fe^3+,; also recorded: Pb^2+, Cu^2+, Zn^2+,; also recorded: Hg^2+ | 26.9 | 7.8 | 80 °C | 80 | 80 | epicellobiose | Forming D-talose | Forming D-mannose | Forming D-glucose | Forming epilactose | Forming epimaltose |  |
| B2 |  |  | about 7.8 | about 80 °C |  |  |  |  |  |  |  |  | up to 70 °C |
